# From US9803013B2, “Biological materials and uses thereof” (BioInvent International AB, priority 2005, dated 2017)
# Experiments:
# MM cells = experiment: FACS analysis of BI-505 epitope expression on patients' plasma cells; format: binding, human; set-up: key to BI-505 epitope expression Intensity: BI-505 negative cells (−) are B-cells from patient number 8; (+), (++) and (+++) corresponding to patient number 8, 7 and 10; (+), (++) and (+++) corresponding to patient number 8, 7 and 10; (+), (++) and (+++) corresponding to patient number 8, 7 and 10; details: for BI-505 epitope expression Intensity: FACS on MM cells
# Description: (FIG. 16A) Analysis of myeloma cells in bone marrow from multiple myeloma patients by flow cytometry. Myeloma cells were gated based on expression of CD138, CD38, CD56 and CD45 according to international guidelines (Rawstron et al., 2008). Furthermore, intracellular staining was used to confirm monoclonal expression by K and A staining. B1-505 epitope expression was categorized as shown in the histogram (right position) with (+), (++) and (+++) corresponding to patient number 8, 7 and 10. BI-505 negative cells (−) are B-cells from patient number 8.
# It was next evaluated the expression of the BI-505 epitope on bone marrow cells in patients with MM and related diseases (plasmacytoma, plasma cell leukemia, and light chain amyloidosis) by flow cytometry (FIG. 15 and Table 4). Myeloma cells were identified using fluorescent antibodies against surface antigens CD38, CD138, CD45 and CD56 (FIG. 16A) according to European Myeloma Network guidelines on multiparametric flow cytometry in MM (Rawstron et al., 2008) and confirming monoclonal MM cells with intracellular staining of λ and κ light chains. All MM patients expressed the BI-505 epitope on most (97±4%, mean±SD, patient n=22) myeloma cells (FIG. 15 and Table 4). The BI-505 epitope was generally very highly expressed on these cells, with median expression level 10 times higher than on normal B cells from the same patients. Similar results were obtained with a commercially available anti-ICAM-1 antibody (data not shown). Furthermore, the BI-505 epitope was highly expressed on myeloma cells in a patient in relapse who had received several different lines of therapy (FIG. 16B). Thus, ICAM-1 and the BI-505 epitope are strongly expressed on the surface of MM plasma cells.
# Plasma cell surface expression of ICAM-1 and the BI-505 epitope was analyzed by FACS. Bone marrow aspirates were obtained from 29 patients diagnosed with MM or related diseases at the Department of Hematology, Skånes University Hospital, Lund. All human samples were collected using protocols approved by the Ethics Committee of Skåne University Hospital, and informed consent was obtained from all patients.
# Bone marrow aspirates from 29 patients diagnosed with MM or related diseases (plasmocytoma, plasma cell leukemia, or amyloid light chain amyloidosis) at the Department of Hematology, Skånes University Hospital, Lund were analyzed by flow cytometry using 4 cocktails of antibodies, each suitable for recognizing plasma cells (Figure S3) after informed consent and with the approval of the local ethical committee. Clinical data were obtained from patients' charts.
# CL-01 B lymphoma cells = experiment: Mitochondrial membrane depolarisation assay (JC-1); format: cell-based, human; details: CL-01, JC-1 staining, 2 μg/ml IgG cross-linked, 6 h
# Protocol: FIG. 4A. […] Cells were incubated at 37° C. for 6 h and the effect of the antibody incubation was determined by two independent apoptosis assays. Cells were stained either by AV/PI (upper panel), similarly as described above, or by incubation with 5 μg/ml of the mitochondrial membrane depolarisation reagent JC-1 for 30 min at RT (lower panel). Induction of apoptosis is detectable by a decrease in the red (y-axis)/green (x-axis) fluorescence intensity ratio. (FIG. 4B) Histology section showing representative binding of B11 antibody to B lymphoma tissue. Cryo-preserved tissue obtained from a patient with Anaplastic Large Cell B Lymphoma was stained with B11 or FITC-8 (control) scFv antibody. Antibody binding was detected with DAB (brown colour). […] IgG B11 binding to the different cell populations was recorded in the FL4 channel.
# Mitochondrial membrane depolarisation was analysed as previously described (Kim et al., Mol. Biol. Cell (2004) 15:420-434). […] Cells were washed twice in ice-cold PBS and resuspended in […] PBS and analysed on a FACS Aria (BD Biosciences). The green and red fluorescence was collected through 494/518 nm (FL-1) and 595/615 nm (FL-2) bandpass filters, respectively. […]
molecule,measurement,setting,value
"B11: fully human IgG1 antibody specific for ICAM-1; VH and VL sequences of FIG. 10 (SEQ ID NOs. 6 and 8) (antibody, listed as Homo sapiens, V domains shown) VH: EVQLLESGGGLVQPGGSLRLSCAASGFTFSNAWMSWVRQAPGKGLEWVAFIWYDGSNKYYADSVKGRFTISRDNSKNTLYLQMNSLRAEDTAVYYCARYSGWYFDYWGQGTLVTVSS VL: QSVLTQPPSASGTPGQRVTISCTGSSSNIGAGYDVHWYQQLPGTAPKLLIYDNNNRPSGVPDRFSGSKSGTSASLAISGLRSEDEADYYCQSYDSSLSAWLFGGGTKLTVLG",myeloma cells expressing the BI-505 epitope,"MM cells; all MM patients, mean±SD, patient n=22",97±4%
same,BI-505 epitope expression Positive cells (%),"MM cells; patient 1, MM",98%
same,BI-505 epitope expression Intensity,"MM cells; patient 1, MM",+++
same,BI-505 epitope expression Positive cells (%),"MM cells; patient 2, MM",97%
same,BI-505 epitope expression Intensity,"MM cells; patient 2, MM",+++
same,BI-505 epitope expression Positive cells (%),"MM cells; patient 3, MM",100%
same,BI-505 epitope expression Positive cells (%),"MM cells; patient 4, nsMM",100%
same,BI-505 epitope expression Intensity,"MM cells; patient 4, nsMM",+++
same,BI-505 epitope expression Positive cells (%),"MM cells; patient 5, MM",100%
same,BI-505 epitope expression Intensity,"MM cells; patient 5, MM",++
same,BI-505 epitope expression Positive cells (%),"MM cells; patient 6, MM",98%
same,BI-505 epitope expression Intensity,"MM cells; patient 6, MM",+++
same,BI-505 epitope expression Positive cells (%),"MM cells; patient 7, MM",98%
same,BI-505 epitope expression Intensity,"MM cells; patient 7, MM",+++
same,BI-505 epitope expression Positive cells (%),"MM cells; patient 8, MM",100%
same,BI-505 epitope expression Intensity,"MM cells; patient 8, MM",+++
same,BI-505 epitope expression Positive cells (%),"MM cells; patient 9, MM",100%
same,BI-505 epitope expression Intensity,"MM cells; patient 9, MM",++
same,BI-505 epitope expression Positive cells (%),"MM cells; patient 10, MM",95%
same,BI-505 epitope expression Intensity,"MM cells; patient 10, MM",+
same,BI-505 epitope expression Positive cells (%),"MM cells; patient 11, MM",100%
same,BI-505 epitope expression Intensity,"MM cells; patient 11, MM",+++
same,BI-505 epitope expression Positive cells (%),"MM cells; patient 12, nsMM",95%
same,BI-505 epitope expression Positive cells (%),"MM cells; patient 13, MM",100%
same,BI-505 epitope expression Intensity,"MM cells; patient 13, MM",+++
same,BI-505 epitope expression Positive cells (%),"MM cells; patient 14, MM",100%
same,BI-505 epitope expression Intensity,"MM cells; patient 14, MM",+++
same,BI-505 epitope expression Positive cells (%),"MM cells; patient 15, MM",100%
same,BI-505 epitope expression Intensity,"MM cells; patient 15, MM",+++
same,BI-505 epitope expression Positive cells (%),"MM cells; patient 16, MM",88%
same,BI-505 epitope expression Intensity,"MM cells; patient 16, MM",++
same,BI-505 epitope expression Positive cells (%),"MM cells; patient 17, MM",100%
same,BI-505 epitope expression Intensity,"MM cells; patient 17, MM",+++
same,BI-505 epitope expression Positive cells (%),"MM cells; patient 18, MM",100%
same,BI-505 epitope expression Intensity,"MM cells; patient 18, MM",+++
same,BI-505 epitope expression Positive cells (%),"MM cells; patient 19:1, MM",93%
same,BI-505 epitope expression Intensity,"MM cells; patient 19:1, MM",+++
same,BI-505 epitope expression Positive cells (%),"MM cells; patient 19:2, MM",95%
same,BI-505 epitope expression Intensity,"MM cells; patient 19:2, MM",+++
same,BI-505 epitope expression Positive cells (%),"MM cells; patient 19:3, MM",91%
same,BI-505 epitope expression Intensity,"MM cells; patient 19:3, MM",+++
same,BI-505 epitope expression Positive cells (%),"MM cells; patient 20, MM",100%
same,BI-505 epitope expression Intensity,"MM cells; patient 20, MM",+++
same,BI-505 epitope expression Positive cells (%),"MM cells; patient 21, MM",93%
same,BI-505 epitope expression Intensity,"MM cells; patient 21, MM",+++
same,BI-505 epitope expression Positive cells (%),"MM cells; patient 22, MM",86%
same,BI-505 epitope expression Intensity,"MM cells; patient 22, MM",+++
same,BI-505 epitope expression Positive cells (%),"MM cells; patient 23, AL",97%
same,BI-505 epitope expression Intensity,"MM cells; patient 23, AL",++
same,BI-505 epitope expression Positive cells (%),"MM cells; patient 24, AL",100%
same,BI-505 epitope expression Intensity,"MM cells; patient 24, AL",+++
same,BI-505 epitope expression Positive cells (%),"MM cells; patient 25, LCDD/MM",98%
same,BI-505 epitope expression Intensity,"MM cells; patient 25, LCDD/MM",+++
same,BI-505 epitope expression Positive cells (%),"MM cells; patient 26, PCL",76%
same,BI-505 epitope expression Intensity,"MM cells; patient 26, PCL",+++
same,BI-505 epitope expression Positive cells (%),"MM cells; patient 27, PCL",77%
same,BI-505 epitope expression Intensity,"MM cells; patient 27, PCL",+
same,BI-505 epitope expression Positive cells (%),"MM cells; patient 28, PC",93%
same,BI-505 epitope expression Intensity,"MM cells; patient 28, PC",+++
same,BI-505 epitope expression Positive cells (%),"MM cells; patient 29, PC",100%
same,BI-505 epitope expression Intensity,"MM cells; patient 29, PC",+++
same,increase of mean BI-505 expression in myeloma cells after first relapse,"MM cells; patient, bone marrow number 2 versus diagnosis",two-fold
same,mitochondrial membrane depolarisation,CL-01 B lymphoma cells,induce mitochondrial membrane depolarisation
